Reference: publication PMC7105229
Read-outs that look alike come from different tables or passages of the source.

Key:
[1] = molecular target: Vibrio vulnificus FAN1 (Vibrio vulnificus); experiment: SEC
[2] = molecular target: Vibrio vulnificus FAN1 (Vibrio vulnificus); experiment: SEC; remark: listed apart in the source

Vibrio vulnificus FAN1 (enzyme) was tested, and the stoichiometry N [1] was 2 and the stoichiometry N [2] was 2.
